Laboratory results from doi:10.1101/2021.08.16.456468.

Molecular target: DnaD^7A, purified (B. subtilis) (UniProt P39787)
Experiment: SEC

stoichiometry N: 4
Substance: DnaD^7A, purified (from UniProt P39787 1-232) (natural protein)
